Assay results reported in patent US20040091578A1 (priority 2001, published 2004).

How the values were obtained:
castor seed 2S protein = castor seed 2S protein (Ricinus communis, UniProt P01089); format: biochemical; settings: 20 min at 25° C.
trypsin [1] = assay: Trypsin proteolysis of purified milk allergens; format: biochemical; settings: 10 μg NTS reduced protein, 2 μg trypsin
Procedure: The analysis of the reduction was done using the mBBr/SDS-PAGE techniques. Further in this study, when 10 μg of an NTS reduced purified milk allergen protein, β-lactoglobulin (Sigma Chemical Co.), was treated with 2 μg of trypsin, proteolysis was 100% as compared with only 50% for the identically trypsin treated oxidized β-lactoglobulin. […] However, 10 μg of purified α-lactalbumin reduced by the NTS was proteolyzed 80% by trypsin. Also 10 μg of α-lactalbumin reduced by 0.8 μg of thioredoxin and 0.5 mM DTT was 100% proteolyzed by 2 μg of trypsin.

pepsin [2] = biological target: T1, pepsin (Sus scrofa, UniProt P00791); assay: Pepsin assay in simulated gastric fluid (Example 39); format: in vitro ADME, porcine
T1 construct: purchased Sigma
Procedure: BLG, 640 μg, or milk, 1 mg protein (i.e., about 30 μl), was incubated with or without the thioredoxin system (NTS) at either 4° C. […] The BLG, 320 μg, or milk, 500 μg protein, was then treated in 200 μl of simulated gastric fluid (SGF) as described by Astwood, J. D. et al. (1996), “Stability of food allergens to digestion in vitro”, Nature Biotechnol. 14:1269-1273. SGF consists of 0.32% pepsin (w/v) and 30 mM NaCl adjusted at pH 1.2 with HCl (Board of Trustees (ed.) 1995, Simulated Gastric Fluid, TS., pp. 2053 in the United States Pharmacopeia 23, The National Formulary 18. United States Pharmacopeial Convention, Inc. Rockville, Md.). The reaction mixture was incubated at 37° C. and stopped by adding 0.375-fold volume of 160 mM Na2CO3 (ca. pH 7) after 0, 0.25, 1, 2, 4, 8, 15, 30 and 60 min incubation. The protein mixture was then subjected to SDS-PAGE (15% gels) and stained for protein with Coomassie blue as described below. As indicated, the allergenicity of the digested samples was determined by skin test analysis.

atopic dogs = assay: Skin tests with milk and BLG in atopic dogs (Example 39); format: in vivo; settings: dog model skin tests
Procedure: Newborn pups from two litters of the atopic dog colony, designated CGB and GCB, were injected subcutaneously at day 1 with 1 μg each of wheat, cows milk and beef extract (Miles, Inc., Elkhart, Ind., described in Example 33) in 0.2 ml of alum. A third litter, designated CBB, was injected with a soy extract (Miles, Inc. described in Example 33) in addition to these same allergens. Procedures for the sensitization, testing and maintenance of the pups were substantially the same as those described in Example 36.
About 3 min prior to skin testing, each dog received 4-5 ml of filtered 0.5% Evans blue dye solution (equivalent to 0.2 ml of 0.5% Evans blue dye per kg of weight) through a cephalic vein to enhance assessment of the cutaneous IgE antibodies. Serial dilutions of 100 μl of each sample were injected intradermally on the abdominal skin to establish the titer. After 15-20 min, the allergic response was determined by measuring the size of the blue wheal reaction (maximum length and width). An appropriate negative control (buffer diluted in physiological saline) was included for each animal tested. Repeated tests with thioredoxin, NTR, NADPH and pepsin alone were consistently negative.

[3] = Redox stability of reduced BLG in air; format: physicochemical; settings: NTS-treated raw milk without buffer, stored at 4° C. in air
Procedure: BLG is known to contain two disulfides, both intramolecular (See, FIG. 8): one clearly accessible on the surface and located close to the C-terminus (Cys 66-Cys 160) and the other, close to the core, located between two β-sheets (Cys 106-Cys 119 or possibly Cys 106-Cys 121). Sequence analysis confirmed that the exposed disulfide (Cys 66-Cys 160) was reduced at 55° C. […] Differential reduction of BLG could also be achieved by altering pH. […] Furthermore, the BLG in this treated milk without buffer remained reduced for 2 days when stored at 4° C. in air (data not shown).
Two sulfhydryl (SH) groups can often spontaneously react to form an S—S bond in the presence of oxygen. […] For example, the reduced form of β-lactoglobulin (BLG), a major allergen of cow's milk, is fully reoxidized after 3 days in air whether reduced by either NTS or DTT. This invention provides for the stabilization of proteins, including allergenic proteins reduced by the NTS at 4° C. and by DTT at 55° C. Other physiological reductants such as lipoic acid may also be used to initially reduce the proteins. In general, the reduction reactions were conducted as described in previous examples. The proteins are stabilized in that the SH groups of these proteins and allergens are blocked and prevented from reoxidizing to form S—S bonds. […]

pepsin [4] = biological target: T1, pepsin; assay: Stability to pepsin in simulated gastric fluid (Example 44); format: in vitro ADME, porcine; settings: 37° C., 0.32% pepsin
Procedure: Assay for Stability to Pepsin. BLG (1 mg/ml) or milk (15 mg/ml) were mixed with simulated gastric fluid (SGF) to give 0.32% pepsin and incubated for the indicated times at 37° C. as described in Example 39 and Astwood et al., 1996, herein incorporated by reference. The digested proteins were analyzed by reducing SDS-PACE (10 to 20% gradient gel) also as described in Laemmli, 1970, herein incorporated by reference.

glutaredoxin = biological target: T2, glutaredoxin (Escherichia coli, UniProt P68688); assay: Reduction by glutaredoxin, mBBr/SDS-PAGE with densitometric scanning; format: biochemical; settings: E. coli glutaredoxin, glutathione reductase, NADPH
T2 sequence (P68688 1-85): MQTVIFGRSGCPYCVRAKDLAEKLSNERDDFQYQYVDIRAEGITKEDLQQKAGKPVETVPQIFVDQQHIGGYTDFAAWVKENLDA
Procedure: Direct reduction of the proteins under study was determined by a modification of the method of Crawford et al. (Crawford, N. A. et al. (1989), Arch. Biochem. Biophys. 271:223-239). The reaction was carried out in 100 mM potassium phosphate buffer, pH 7.1, containing 10 mM EDTA and 16% glycerol in a final volume of 0.1 ml. As indicated, 0.7 μg (0.1 μM) NTR and 1 μg (0.8 μM) thioredoxin (both routinely from E. coli were added to 70 μl of the buffer solution containing 1 mM NADPH and 10 μg (2 to 17 μM) of target protein. When thioredoxin was reduced by dithiothreitol (DTT, 0.5 mM), NADPH and NTR were omitted. Assays with reduced glutathione were performed similarly, but at a final concentration of 1 mM. After incubation for 20 min, 100 nmoles of mBBr were added and the reaction was continued for another 15 min. To stop the reaction and derivatize excess mBBr, 10 μl of 10% SDS and 10 μl of 100 mM β-mercaptoethanol were added and the samples were then applied to the gels. […]
This ability was tested, using glutaredoxin from E. coli and the seed proteins currently under study. Reduction activity was monitored by the mBBr/SDS polyacrylamide gel electrophoresis procedure coupled with densitometric scanning.

trypsin [5] = assay: Trypsin inhibition assay; format: biochemical
Procedure: Unless indicated, the reduction of the trypsin inhibitors (0.4 mg/ml) was carried out in 0.1 ml of 20 mM sodium phosphate buffer, pH 7.9 containing 10 mM EDTA at 30° C. for 2 hours. The concentrations of thioredoxin, NTR, and NADPH were 0.024 mg/ml, 0.02 mg/ml, and 0.25 mM, respectively. […] Following reduction, aliquots of the inhibitor mixture were withdrawn either for determination of trypsin inhibitory activity or proteolytic susceptibility. In the subtilisin tests, the inhibitor mixture (50 μl) was directly mixed with subtilisin and incubated at room temperature for 1 hour. […] Proteolytic products were analyzed by electrophoresis with 12% or 16% SDS polyacrylamide slab gels (Laemmli, 1970). […]
Thioredoxin and NTR were assayed as previously described by Florencio et al. (1988). Trypsin activity was measured in 50 mM Tris-HCl, pH 7.9, by following the increase in absorbance at 253 nm with N-benzoyl-L-arginine ethyl ester as substrate (Mundy et al., 1984) or by the release of azo dye into the trichloroacetic acid (TCA)-soluble fraction from azocasein substrate (see below). For trypsin inhibition assays, trypsin (5 to 10 μg) was preincubated with appropriate amounts of KTI or BBTI for 5 minutes at room temperature in 50 mM Tris-HCl, pH 7.9 and proteolytic activity was then determined. […]

[6] = system: wheat protease preparation; assay: Susceptibility to proteolysis by a plant protease preparation, SDS-PAGE densitometry; format: biochemical
Procedure: The endosperm (10-15 g fresh weight) isolated from 5-day germinated wheat seeds by excising the roots and shoots was extracted for 30 minutes at 4° C. with 5 volumes of 200 mM sodium acetate, pH 4.6, containing 10 mM β-mercaptoenthanol. The homogenate was centrifuged for 20 minutes at 48,000 g, 4° C. The pellet was discarded and the supernatant fluid was fractionated with 30-70% ammonium sulfate. This fraction, which represented the protease preparation, was resuspended in a minimum volume of 20 mM sodium acetate, pH 4.6, containing 10 mM β-mercaptoenthanol, and dialyzed against this buffer overnight at 4° C.
Unless indicated, the reduction of the trypsin inhibitors (0.4 mg/ml) was carried out in 0.1 ml of 20 mM sodium phosphate buffer, pH 7.9 containing 10 mM EDTA at 30° C. for 2 hours. The concentrations of thioredoxin, NTR, and NADPH were 0.024 mg/ml, 0.02 mg/ml, and 0.25 mM, respectively. […] Following reduction, aliquots of the inhibitor mixture were withdrawn either for determination of trypsin inhibitory activity or proteolytic susceptibility. In the subtilisin tests, the inhibitor mixture (50 μl) was directly mixed with subtilisin and incubated at room temperature for 1 hour. With the wheat protease preparation, the pH of the inhibitor mixture (50 μl) was first adjusted to 4.7 by mixing with 35 μl of 200 mM sodium acetate, pH 4.6; 10 μl of the wheat protease preparation was then added and incubation was continued for 2 hours at 37° C. To stop digestion with subtilisin, 2 μl of 100 mM phenylmethylsulfonyl fluoride (PMSF) and 10 μl of 10% SDS were added to the digestion mixture. With the plant protease preparation, digestion was stopped by adding an equal volume of SDS sample buffer [0.125 M Tris-HCl, pH 6.8, 4% (w/v) SDS, 20% (v/v) glycerol, 10% (v/v) β-mercaptoethanol, and 0.02% (w/v) bromophenol blue]. Proteolytic products were analyzed by electrophoresis with 12% or 16% SDS polyacrylamide slab gels (Laemmli, 1970). The dried slab gels were scanned with a laser densitometer (Pharmacia-LKB UltraScan XL) and the peak area of the KTI or BBTI protein band was obtained by integration with a Pharmacia GelScan XL software program.
To test whether the reduced forms of KTI and BBTI show decreased stability to proteases other than trypsin, both the reduced and oxidized forms of KTI and BBTI were incubated with a wheat protease preparation or with subtilisin and the proteolytic products were analyzed by SDS-PAGE. The extent of proteolysis was determined by measuring the abundance of intact protein on SDS gels by laser densitometer. When tested with a protease preparation from 5-day germinated wheat seeds, the oxidized form of the Kunitz inhibitor was almost completely resistant to digestion whereas the thioredoxin-reduced form was susceptible to protease. […] The nature of the proteolytic reaction was not investigated, but it is noted that peptide products were not detected on SDS gels.

trypsin [7] = settings: soy flour, 30 min at 120° C. (Friedman et al., 1991); cited from earlier work

T1 sequence (P00791 60-385): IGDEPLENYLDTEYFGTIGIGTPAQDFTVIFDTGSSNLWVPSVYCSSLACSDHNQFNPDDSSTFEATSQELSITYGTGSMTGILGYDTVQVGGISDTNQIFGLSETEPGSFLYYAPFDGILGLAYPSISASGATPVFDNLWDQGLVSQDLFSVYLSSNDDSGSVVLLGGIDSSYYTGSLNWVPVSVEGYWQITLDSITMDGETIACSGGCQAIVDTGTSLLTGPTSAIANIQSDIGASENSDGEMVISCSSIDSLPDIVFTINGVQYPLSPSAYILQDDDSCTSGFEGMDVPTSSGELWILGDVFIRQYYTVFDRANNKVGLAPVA
Chain of castor seed 2S protein (P01089 194-258 limits assumed): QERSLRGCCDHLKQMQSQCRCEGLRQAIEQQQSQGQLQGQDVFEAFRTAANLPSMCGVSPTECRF
Chain of castor seed 2S protein (P01089 157-190 partner limits assumed): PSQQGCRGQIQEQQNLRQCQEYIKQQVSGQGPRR

With O[C@H](CS)[C@H](O)CS (racemic) [DTT, dithiothreitol] the “Relative Reduction (%)” value (castor seed 2S protein) was 67%.

For “β-lactoglobulin: bovine β-lactoglobulin, major milk allergen; untreated (oxidized) control in Tables XVIII, XXI-XXIV”, the proteolysis by trypsin (trypsin [1]) was 100%, the “time resisting digestion in SGF” value (pepsin [2]; oxidized BLG in milk) was “at least 60 min” and the “time to digestion in SGF” value (pepsin [2]; thioredoxin-reduced BLG in milk) was no more than 60 s. The “share of the total wheal-inducing activity of milk” value (atopic dogs) was 80%, the “time BLG remained reduced” value [3] was 2 days and the “half-life in SGF” value (pepsin [4]) was “about 2 hours”.

B1: Soybean Kunitz: Kunitz soybean trypsin inhibitor (protein, UniProt P01070 25-205, looked up)
Trypsin inhibitor A: DFVLDNEGNPLENGGTYYILSDITAFGGIRAAPTGNERCPLTVVQSRNELDKGIGTIISSPYRIRFIAEGHPLSLKFDSFAVIMLCVGIPTEWSVVEDLPEGPAVKIGENKDAMDGWFRLERVSDDEFNNYKLVFCPQQAEDDKCGDIGISIDHDDGTRRLVVSKNKPLVVQFQKLDKESL
For B1, the “percentage reduction by glutaredoxin relative to E. coli thioredoxin” value (glutaredoxin) was “ineffective”, the “increase in trypsin activity effected by the NADP/thioredoxin system” value (trypsin [5]) was 3 fold and the “Relative Abundance” value ([6]; Protease after E. coli NTS) was 22.1. The “Relative Abundance” value ([6]; Protease after NTS minus NADPH) was 97.7, the “Relative Abundance” value ([6]; Protease after NTS minus NTR) was 97.9 and the “Relative Abundance” value ([6]; Protease after NTS minus thioredoxin) was 90.2. For the same molecule, the “Relative Abundance” value ([6]; Protease, No reduction system, no protease = 100) was 97.9, the degraded ([6]; all components of NTS present) was “about 80%” and the “original trypsin inhibitor activity remaining” value (trypsin [7]) was “about 20%”.
